The assay has as its target rVSV-EBOV GPΔβ17-β18 (Zaire ebolavirus (EBOV)) (UniProt Q05320).

In turn, ADI-15946 IgG (antibody) showed a neutralization efficiency of rVSV-EBOV GPΔβ17-β18 compared to GPWT of 10 fold.

The values are drawn from PMC6402988.
